Experimental findings from patent US20210380703A1 (RIGEL PHARMACEUTICALS, published 2021) are described below.

The labels stand for the following.
B1: 373_G08 (antibody, V domains shown)
VH: EVQLLESGGGLVQPGGSLRLSCAASGFTFDSYSMNWVRQAPGKGLEWVSNINYNGGYTSYADSVKGRFTISRDNSKNTLYLQMNSLRAEDTAVYYCARGANWHDTALDYWGQGTLVTVSS
VL: DIQMTQSPSSLSASVGDRVTITCRASQSILTYLNWYQQKPGKAPKLLIYAATSLASGVPSRFSGSGSGTDFTLTISSLQPEDFATYYCQQSYDSPLTFGGGTKVEIK
notes: Group III
B2: 374_C09 (antibody, V domains shown)
VH: B1 VH with S33G, N50S, T58K, S59G, A106H
VL: B1 VL with L30V, T31S, L47V, L54R, D93E, S94L
notes: Group III
B3: 374_C12 (antibody, V domains shown)
VH: B1 VH with D30S, S49A, N50G, T58K
VL: B1 VL with L47V, L54R, Y92D, D93N
notes: Group III
B4: 374_D10 (antibody, V domains shown)
VH: B1 VH with D30S, S33G, N35H, S49A, N50S, A106H
VL: B1 VL with L33V, L54R, S94N
notes: Group III
B5: 373_H09 (antibody, V domains shown)
VH: B1 VH with D30S, S33G, S49A, N50S, G55S, T58K, A106H
VL: B1 VL with L30I, L47V, L54R, Y92D
notes: Group III
B6: 374_G09 (antibody, V domains shown)
VH: B1 VH with D30S, S49A, N50G, T58K, S59G, A106H
VL: B1 VL with L30V, T31R, L47V, D93E, S94L
notes: Group III
B7: 374_A09 (antibody, V domains shown)
VH: B1 VH with D30S, N50S, T58K, S59G, A106H
VL: B1 VL with L33V
notes: Group III
B8: 374_B03 (antibody, V domains shown)
VH: B1 VH with N50G
VL: B1 VL with L47V, L54R
notes: Group III
B9: 374_F08 (antibody, V domains shown)
VH: B1 VH with N50G, T58K
VL: B1 VL with L33V, L47V, A51V, L54R, S94T
notes: Group III
B10: 374_B10 (antibody, V domains shown)
VH: B1 VH with D30S, N50S, G55S, A106H
VL: B1 VL with L33V, L47V, S94T
notes: Group III
B11: 374_D07 (antibody, V domains shown)
VH: B1 VH with N50G, G55S, T58K
VL: B1 VL with L30V, T31S, L47V, D93N
notes: Group III
B12: 374_B05 (antibody, V domains shown)
VH: B1 VH with N50G, G55S
VL: B1 VL with L30V, T31S, L54R, A55H, D93E
notes: Group III
B13: 374_D06 (antibody, V domains shown)
VH: B1 VH with D30S, N50G
VL: B1 VL with T31S, L33V, L47V, L54R
notes: Group III
B14: 374_C01 (antibody, V domains shown)
VH: B1 VH with S33G, N50G, G55S, T58K
VL: B1 VL with L54R, D93E, S94T
notes: Group III
B15: 374_B08 (antibody, V domains shown)
VH: B1 VH with S49A, N50G
VL: B1 VL with L30V, T31S, L33V, L54R, A55H, D93E, S94L
notes: Group III
B16: 374_A06 (antibody, V domains shown)
VH: B1 VH with D30S, N50S, G55S, A106H
VL: B1 VL with T31S, L47V, L54R
notes: Group III
B17: 374_D03 (antibody, V domains shown)
VH: B1 VH with S49A, N50G, T58K, A106H
VL: B1 VL with L30V, L54R, S94T
notes: Group III
B18: 374_G03 (antibody, V domains shown)
VH: B1 VH with D30S, S31D, N50G
VL: B1 VL with L30S, T31S, L47V, L54R, Y92D, S94T
notes: Group III
B19: 374_G10 (antibody, V domains shown)
VH: B1 VH with D30S, N50S, G55S, A106H
VL: B1 VL with L30V, T31S, L47V, A51V, L54R
notes: Group III
B20: 373_H07 (antibody, V domains shown)
VH: B1 VH with D30S, S49A, N50G, A106H
VL: B1 VL with L30V, T52S, A55Q
notes: Group III
B21: 374_E12 (antibody, V domains shown)
VH: B1 VH with D30S, N50G, T58K
VL: B1 VL with T31S, L47V, L54R, S94N
notes: Group III
B22: 374_G08 (antibody, V domains shown)
VH: B1 VH with N50G
VL: B1 VL with L33V, L47V, L54R
notes: Group III
B23: 374_H11 (antibody, V domains shown)
VH: B1 VH with D30S, N50G
VL: B1 VL with L30I, T31S, L33V, L47V, A55H, D93S, S94N
notes: Group III
B24: 374_F06 (antibody, V domains shown)
VH: B1 VH with D30S, N50G
VL: B1 VL with L30I, T31S, L33V, L47V, A55H, D93S, S94T
notes: Group III
B25: 373_H03 (antibody, V domains shown)
VH: B1 VH with D30S, N50G, G55S, T58K
VL: B1 VL with T31S, A51T, L54R, D93E, S94N
notes: Group III
B26: 374_G11 (antibody, V domains shown)
VH: B1 VH with D30S, S31D, N50G
VL: B1 VL with L30I, T31S, L33V, L47V
notes: Group III
B27: 374_H01 (antibody, V domains shown)
VH: B1 VH with S49A, N50G, A106H
VL: B1 VL with T31S, L47V, D93E, S94N
notes: Group III
B28: 374_F07 (antibody, V domains shown)
VH: B1 VH with S49A, N50S, S59G, A106H
VL: B1 VL with T31S, L47V, A51V, D93E
notes: Group III
B29: 375_A01 (antibody, V domains shown)
VH: B1 VH with S49A, N50G
VL: B1 VL with T31S, L47V, L54R, D93N, S94T
notes: Group III
B30: 374_E10 (antibody, V domains shown)
VH: B1 VH with D30S, N50G, T58K
VL: B1 VL with T31S, L54R, A55H
notes: Group III
B31: 374_D05 (antibody, V domains shown)
VH: B1 VH with N50G, G55S, S59G, A106H
VL: B1 VL with L54R, S94T
notes: Group III

Where a chain is given by its changes, count along the chain named.
Note: test concentration or dose not given here.

T1 sequence (P27037 20-135 limits assumed): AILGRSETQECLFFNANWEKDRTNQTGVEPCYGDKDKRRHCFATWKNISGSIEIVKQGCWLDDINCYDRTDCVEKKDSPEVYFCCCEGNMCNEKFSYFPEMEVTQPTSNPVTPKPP
T2 sequence (P27038 20-135 limits assumed): as the sequence (P27037 20-135 limits assumed) above, with K20R, V73I counted along it

The first experiment concerns the target T1, human ACVR2A (human, UniProt P27037 20-135, limits assumed).
T1 construct: coated antigen of the initial ELISA; also called activin receptor, type II A
Kind of experiment: ELISA. The method, boiled down: (§1)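 mAb binding by ELISA; antigens: hu ACVR2A, mu ACVR2A; pos ctrl biotinylated goat anti-hu kappa LC; neg ctrl hu Fc.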
(In an ELISA, binding on a coated surface is turned into a signal by an enzyme label.)
Molecule B1 had an optical density of 3.65 OD.

Molecule B2 registered an optical density of 3.43 OD.

For B3, the optical density was 3.67 OD.

Regarding B4, the optical density stood at 3.56 OD.

In the case of B5, the optical density was 0.93 OD.

As for B6, the optical density came out at 3.66 OD.

Take B7: the optical density was determined as 3.58 OD.

Regarding B8, the optical density stood at 3.69 OD.

For the molecule B9, the optical density worked out at 3.67 OD.

B10 yielded an optical density of 3.71 OD.

In the case of B11, the optical density stood at 3.71 OD.

Turning to B12, the optical density worked out at 3.68 OD.

On to B13, for which the optical density was 3.78 OD.

The molecule B14 came in with an optical density of 2.69 OD.

Turning to B15, the optical density is 3.6 OD.

B16 returned an optical density of 3.77 OD.

Take B17: the optical density was 3.3 OD.

Take B18: the optical density was 3.79 OD.

The molecule B19 gave an optical density of 3.68 OD.

In turn, B20 registered an optical density of 3.25 OD.

Regarding B21, the optical density was determined as 3.61 OD.

In the case of B22, the optical density was found to be 3.71 OD.

As for B23, the optical density worked out at 3.27 OD.

Take B24: the optical density turned out to be 3.72 OD.

In the case of B25, the optical density was 3.27 OD.

Turning to B26, the optical density stood at 3.65 OD.

Molecule B27 had an optical density of 3.08 OD.

In turn, B28 returned an optical density of 3.47 OD.

As for B29, the optical density came out at 3.28 OD.

B30 displayed an optical density of 3.74 OD.

On to B31, for which the optical density was 3.43 OD.

Another experiment concerns the target T2, mouse ACVR2A (mouse, UniProt P27038 20-135, limits assumed).
T2 construct: coated antigen of the initial ELISA
Put plainly: ELISA. Put shortly: as §1
Molecule B1 returned an optical density of 3.67 OD.

B2 displayed an optical density of 3.51 OD.

With B3, the optical density was 3.33 OD.

As for B4, the optical density came to 3.64 OD.

In turn, B5 registered an optical density of 1.35 OD.

As for B6, the optical density came to 3.6 OD.

B7 displayed an optical density of 3.64 OD.

For B8, the optical density is 3.7 OD.

On to B9, for which the optical density came to 3.68 OD.

With B10, the optical density was 3.69 OD.

Take B11: the optical density came to 3.68 OD.

As for B12, the optical density worked out at 3.65 OD.

As to B13, the optical density is 3.67 OD.

Regarding B14, the optical density stood at 2.93 OD.

Regarding B15, the optical density worked out at 3.63 OD.

Turning to B16, the optical density stood at 3.75 OD.

Consider B17, for which the optical density is 3.48 OD.

In turn, B18 registered an optical density of 3.64 OD.

B19: the optical density stood at 3.74 OD.

B20 came in with an optical density of 3.27 OD.

The molecule B21 displayed an optical density of 3.28 OD.

Take B22: the optical density came to 3.7 OD.

As to B23, the optical density came out at 3.29 OD.

In turn, B24 displayed an optical density of 3.7 OD.

As to B25, the optical density came out at 3.29 OD.

B26 came in with an optical density of 3.6 OD.

Regarding B27, the optical density came out at 3.26 OD.

Regarding B28, the optical density was 3.54 OD.

The molecule B29 displayed an optical density of 3.68 OD.

B30: the optical density is 3.77 OD.

In the case of B31, the optical density worked out at 3.56 OD.

The target of another experiment is T3, biotinylated goat anti-human kappa light chain.
T3 construct: positive control of the ELISA
Put plainly: ELISA, positive control. Put shortly: as §1
In turn, B1 registered an optical density of 3.28 OD.

The molecule B2 came in with an optical density of 3.14 OD.

With B3, the optical density was determined as 3.15 OD.

For B4, the optical density is 3.27 OD.

Take B5: the optical density was 3.08 OD.

Consider B6, for which the optical density amounted to 3.26 OD.

The molecule B7 yielded an optical density of 2.97 OD.

Turning to B8, the optical density worked out at 3.07 OD.

For B9, the optical density is 3.18 OD.

As to B10, the optical density turned out to be 3 OD.

Molecule B11 yielded an optical density of 3.26 OD.

Take B12: the optical density is 3.16 OD.

Molecule B13 gave an optical density of 3.12 OD.

In turn, B14 showed an optical density of 3.08 OD.

Molecule B15 registered an optical density of 3.12 OD.

For B16, the optical density was 3 OD.

B17 returned an optical density of 3.02 OD.

In turn, B18 had an optical density of 3.22 OD.

The molecule B19 showed an optical density of 3.23 OD.

In turn, B20 had an optical density of 3.23 OD.

Molecule B21 showed an optical density of 3.29 OD.

Turning to B22, the optical density was 3.21 OD.

In turn, B23 had an optical density of 3.15 OD.

As for B24, the optical density is 3.18 OD.

Turning to B25, the optical density turned out to be 3.22 OD.

B26 yielded an optical density of 3.25 OD.

As to B27, the optical density turned out to be 3.07 OD.

In turn, B28 returned an optical density of 3.21 OD.

The molecule B29 registered an optical density of 2.91 OD.

As for B30, the optical density turned out to be 3.38 OD.

In turn, B31 gave an optical density of 3.15 OD.
